Reference: patent US12539289B2, “Phorbol ester compositions and methods of use for treating or reducing the duration of cytopenia” (BIOSUCCESS BIOTECH CO., LTD., priority 2014, dated 2026)

B1: G-CSF: granulocyte-colony stimulating factor, a glycoprotein that stimulates the bone marrow to produce granulocytes and stem cells (protein, UniProt P09919 31-207, looked up)
Granulocyte …: TPLGPASSLPQSFLLKCLEQVRKIQGDGAALQEKLVSECATYKLCHPEELVLLGHSLGIPWAPLSSCPSQALQLAGCLSQLHSGLFLYQGLLQALEGISPELGPTLDTLQLDVADFATTIWQQMEELGMAPALQPTQGAMPAFASAFQRRAGGVLVASHLQSFLEVSYRVLRHLAQP

Columns and labels:
Drug Induced Cytopenia = test: Drug induced cytopenia treated by TPA: blood cell counts after DNR + Ara-C; format: in vivo, mice; conditions: n = 10
Method: Ninety (90) adult mice were randomly assigned to 9 groups (10 mice per group). No drug was administered in Control group. Model group was given DNR (6 mg/kg)+Ara-C (150 mg/kg) on Day 0. The rest of the 7 groups were given DNR (6 mg/kg)+Ara-C (150 mg/kg) on Day 0, and each group on Day 7, Day 8, and Day 9 was administered with one of the following drugs: G-CSF (10 μg/kg), EPO (500 IU/kg), TPA (12.5 μg/kg), TPA (25 μg/kg), TPA (50 μg/kg), TPA (12.5 μg/kg)+GCSF (10 μg/kg), or TPA (12.5 μg/kg)+EPO (500 IU/kg).

[1] = test system: Human bone marrow cells from the same AML patient after chemotherapy; test: Colony formation of bone marrow hematopoietic cells in methyl cellulose semi-solid culture medium; format: cell-based
Method: (§1) To explore the effect of TPA alone or combined rhG-CSF on bone marrow hematopoietic cells proliferation and colony formation ability which from patients of acute myeloid leukemia (AML) in the period of bone marrow suppression in vitro and to observe the effect of TPA on bone marrow stromal cells(BMSCs) proliferation or inhibition from patients of AML in the period of myelosuppression and the healthy persons.
• 1) Human bone marrow cells from the same AML patient after chemotherapy were cultured by methyl cellulose semi-solid culture medium. Groups: Blank, TPA (10 ng/ml), G-CSF (50 ng/ml), TPA (10 ng/ml)+GCSF (50 ng/ml). The experiments were repeated for 4 times. • 2) The stroma cells of bone marrow from the healthy human and the AML patient after chemotherapy were cultured by methyl cellulose semi-solid culture medium. Different TPA concentrations were added. Groups: Blank, TPA (0.1 ng/ml), TPA (1.0 ng/ml), TPA (5 ng/ml), TPA (10 ng/ml), TPA (20 ng/ml), TPA (30 ng/ml). • 3) Cultivation of BMSCs from healthy persons and patients of AML in the bone marrow suppression phase in vitro, added to TPA of different concentrations, 0.1 ng/ml, 1.0 ng/ml, 5 ng/ml, 10 ng/ml, 20 ng/ml, 30 ng/ml, and set up a control to detect cell proliferation or inhibition with CCK8 method. Results and Conclusion: • 1. Compared the clones of four groups in incomplete medium, in the control group a small cell clusters can be seen for 24-72 hours, but the cells were dead as time prolong. Cultivated 14 days, control group have no clones formation, CFU-GM are dominated for G-CSF group, TPA alone and combination with G-CSF group have myeloid colony formation, while BFU-E and CFU-GEMM. […] Compared the clones of different concentration of TPA stimulation in incomplete medium, the total clones of 5 ng/ml, 10 ng/ml, 20 ng/ml group are higher than other groups, including 10 ng/ml in the highest, there are statistical significance (both P<0.05). While decreasing or increasing TPA concentration can not improve the colony number. The better concentration of TPA to stimulate the colony formation is 5˜20 ng/ml. […] Compared the clones of different concentration of TPA and G-CSF (50 ng/ml) stimulation in incomplete medium. Combination with G-CSF the better concentration of TPA is 1˜10 ng/ml (both P<0.05). Combination with G-CSF the best concentration of TPA is 5 ng/ml and 1 ng/ml. for CFU-GM and CFU-GEMM. The main clone types are myeloid colones, CFU-GM, also have CFU-GEMM and fewer BFU-E. • 4. […] While TPA group and G-CSF group the number of clones of TPA group and G-CSF group have no statistical significance (P=0.577). • 5. […] Meanwhile, TPA promote bone marroe stromal cells from the AML patients proliferation of concentration 5˜30 ng/ml (cell number 2×10^5/ml). 5 ng/ml of TPA is the best concentration of promoting proliferation, and G-CSF had no effect on the growth of BMSCs from healthy persons or AML patients.

[2] = test system: bone marrow stromal cells (BMSCs) from healthy persons; test: BMSC proliferation or inhibition, CCK8 method, healthy persons; format: cell-based, human; conditions: healthy persons
Method: as §1
(§2) • 1) Human bone marrow cells from the same AML patient after chemotherapy were cultured by methyl cellulose semi-solid culture medium. Groups: Blank, TPA (10 ng/ml), G-CSF (50 ng/ml), TPA (10 ng/ml)+GCSF (50 ng/ml). The experiments were repeated for 4 times. • 2) The stroma cells of bone marrow from the healthy human and the AML patient after chemotherapy were cultured by methyl cellulose semi-solid culture medium. Different TPA concentrations were added. Groups: Blank, TPA (0.1 ng/ml), TPA (1.0 ng/ml), TPA (5 ng/ml), TPA (10 ng/ml), TPA (20 ng/ml), TPA (30 ng/ml). • 3) Cultivation of BMSCs from healthy persons and patients of AML in the bone marrow suppression phase in vitro, added to TPA of different concentrations, 0.1 ng/ml, 1.0 ng/ml, 5 ng/ml, 10 ng/ml, 20 ng/ml, 30 ng/ml, and set up a control to detect cell proliferation or inhibition with CCK8 method. Results and Conclusion: • 1. […]

[3] = test system: bone marrow stromal cells (BMSCs) from patients of AML in the bone marrow suppression phase; test: BMSC proliferation or inhibition, CCK8 method, AML patients; format: cell-based, human
Method: as §1, §2

[4] = test system: neutropenia and thrombocytopenia; test: AML (M2) patient case after DA regimen chemotherapy; format: in vivo, human
Method: Patient, diagnosed with AML (M2). Patient's bone marrow myeloblast plus promyelocyte count was about 60%. After they received one standard course of DA regimen (7 Ara C+3 Daunorubicin), their peripheral WBC count dropped to 0.8×10^9/L. They were then administered 150 μg G-CSF each day. After chemotherapy, it took 12 days (duration of neutropenia and thrombocytopenia) to bring both their platelet count and WBC count, including the neutrophil count, back to normal. Their bone marrow myeloblast plus promyelocyte count was about 40%, still way above the normal value (0˜5%). Then, they received their second standard course of DA regimen. After the second course of DA regimen, their peripheral WBC count and platelet count dropped to 0.6×10^9/L and 80×10^9/L respectively. They were then administered TPA plus G-CSF (150 μg TPA followed with 150 μg G-CSF) each day of day 1 and day 2. On day 4 and day 5, they were administered with only 150 μg TPA each day. The WBC counts and neutrophil percentage* in parenthesis were 1.8×10^9/L (39%) on day 3, 6.5×10^9/L (72%) on day 7, and 5.7×10^9/L (77%) on day 14. The estimated duration of neutropenia after chemotherapy was shortened to about 5 days. The platelet counts were 330×10^9/L on day 3, 715×10^9/L on day 7, and 568×10^9/L on day 14. The estimated duration of thrombocytopenia after chemotherapy was shortened to less than 3 days. […]

neutropenia = test: Duration of neutropenia after high dose chemotherapy; format: in vivo; conditions: stated 'for example'
From the text: For example, the duration of neutropenia after high dose chemotherapy and treatment with GCSF is, for example, about 24±3 days. The combination of TPA and GCSF reduces the duration of neutropenia to about 15±3 days, or about a 25% to 50% reduction in the duration of neutropenia.

[5] = 8 days after DNR + Ara-c, 1 day after 1st dose, G-CSF 10, EPO 500, TPA 12.5, TPA + GCSF 12.5 + 10, TPA + EPO 12.5 + 500 (μg·kg^−1)
[6] = 9 days after DNR + Ara-c, 1 day after 2nd dose, G-CSF 10, EPO 500, TPA 12.5, TPA + GCSF 12.5 + 10, TPA + EPO 12.5 + 500 (μg·kg^−1)
[7] = 10 days after DNR + Ara-c, 1 day after 3rd dose, G-CSF 10, EPO 500, TPA 12.5, TPA + GCSF 12.5 + 10, TPA + EPO 12.5 + 500 (μg·kg^1)

Molecule | PLT (Drug Induced Cytopenia; [5]) | RBC (Drug Induced Cytopenia; [5]) | WBC (Drug Induced Cytopenia; [5]) | PLT (Drug Induced Cytopenia; [6]) | RBC (Drug Induced Cytopenia; [6]) | WBC (Drug Induced Cytopenia; [6]) | PLT (Drug Induced Cytopenia; [7]) | RBC (Drug Induced Cytopenia; [7]) | WBC (Drug Induced Cytopenia; [7]) | colony types whose formation is promoted (CFU-GM, CFU-GEMM, BFU-E) ([1]; bone marrow of AML patients in the period of bone marrow suppression, in vitro) | total number of clones ([1]; incomplete medium, cultivated 14 days, TPA 10 ng/ml, G-CSF 50 ng/ml) | effect on the growth of BMSCs [2] | effect on the growth of BMSCs [3] | bone marrow myeloblast plus promyelocyte count ([4]; after first DA course and 150 μg G-CSF each day) | duration of neutropenia and thrombocytopenia ([4]; after first DA course, 150 μg G-CSF each day) [days] | duration of neutropenia (neutropenia)
EPO: erythropoietin, a glycoprotein hormone that controls erythropoiesis, or red blood cell production | 385 ± 19.28^(1)(1)(2)(2) ×10^9/L | 7.32 ± 0.10^(1)(1)(2)(2) ×10^12/L | 3.7 ± 0.69^(1)(1) ×10^9/L | 935 ± 43.57^(1)(1)(2)(2) ×10^9/L | 6.75 ± 0.69^(1)(1)(2) ×10^12/L | 5.52 ± 0.34^(1)(1) ×10^9/L | 1469 ± 75.67^(2)(2) ×10^9/L | 8.51 ± 0.86^(1)(1)(2)(2)(3)(3) ×10^12/L | 6.45 ± 0.41^(3)(3) ×10^9/L | – | – | – | – | – | – | –
B1 | 373 ± 76.27^(1)(1)(2)(2) ×10^9/L | 4.94 ± 0.42^(1)(1) ×10^12/L | 5.3 ± 0.62^(1)(2)(2) ×10^9/L | 949 ± 65.88^(1)(1)(2)(2) ×10^9/L | 5.40 ± 0.46^(1)(1) ×10^12/L | 6.95 ± 0.44^(2) ×10^9/L | 1456 ± 91.76^(2)(2) ×10^9/L | 5.30 ± 0.34^(1)(1) ×10^12/L | 9.14 ± 0.67^(1)(1)(2)(2) ×10^9/L | promoted the formation of CFU-GM, but had no effect on CFU-GEMM and BFU-E | higher than control group | had no effect | had no effect | about 40% | 12 | about 24±3 days
